Source: US11160869B2 (priority 2019, dated 2021)

What was measured:
[1] = test system: plasma cytokines; assay: MSD V-plex Proinflammatory Panel 1 plasma cytokines, oxazolone colitis (Example 14); assay type: in vivo, mice; settings: 8.45 mg/kg
Description: (§1) Plasma cytokines were quantified using the V-plex Proinflammatory Panel 1 Mouse Kit. Plasma IL-1Ra was quantitated by sandwich immunoassay using an antibody pair from the Mouse IL-1Ra/IL-1F3 DuoSet ELISA (R&D Systems #DY480), Streptavidin SULFO-TAG Labeled (MSD #R32AD-1), Multi-Array 96 Plate Pack, SECTOR Plate MSD #L15XA-3 and Read Buffer T (4×) (MSD #R92TC-2). Samples were read on the QuickPlex SQ 120 plate reader (Meso Scale Discovery, Rockville, Md.).

[2] = Purification process trains with S-650F cation exchange: yield, recovery, purity, endotoxin
Experimental: Refolding was carried out at 4° C. in a refolding solution containing 1 mM reduced glutathione, 0.5 mM oxidized glutathione, 1M Arginine-HC, 250 mM sucrose, 100 mM Tris pH 8.5 at 4° C., and 2 mM EDTA. […] Buffer A for the CHT bind/elute step in Table 56 may also comprise 25 mM Tris, pH7.5, 300 mM NaCl, 5.0 mM NaPi, 0.5 mM CaCl2. Columns used are described in Table 58.
The yield, recovery, and purity of the IL-10 delivery construct was assess after each step, and after each process train.
It was surprising that a cation exchange resin was useful in the purification of the IL-10 delivery construct as cation exchange resins are negatively charged, and thus bind to proteins with a positive charge. Here, the IL-10 delivery construct has a calculated isoelectric point (pI) of 5.49, and thus is anticipated to have a negative charge under conditions traditionally used in a cation exchange chromatography.

[3] = test system: IFNγ, IL-1β, IL-2, IL-6, IL-8, TNFα; assay: Single oral capsule dose in NHP: plasma proinflammatory cytokines; assay type: in vivo, Macaca fascicularis
Experimental: The panel of cytokines (IFNγ, IL-1β, IL-2, IL-6, and IL-8) was evaluated using a multiplex kit available from MSD. The assays in this panel were sandwich immunoassays. The MSD plate came precoated with capture antibodies on independent and pre-defined spots, and samples were quantitated against an 8-point standard curve prepared using a mixture of the cytokines (Proinflammatory Panel 1 (human) Calibrator Blend) from MSD. The standards included 0 pg/mL and these concentration ranges: IFNγ (0.37-1500 pg/mL), IL-1β ([…]), IL-2 (0.36-1490 pg/mL), IL-6 (0.18-721 pg/mL) and IL-8 (0.14-553 pg/mL).
The MSD plate (pre-coated with capture antibodies) was washed 3 times with PBST before use. […] Following a wash step, 2×MSD Read buffer was added to the wells of the plate, and the plate read using the MSD Sector Imager 600 plate reader. […]
The purpose of the TNFα immunoassay was to quantify NHP TNFα concentration in plasma. […] Samples were quantitated using an 8-point standard curve prepared from a human TNFα calibrator that ranges in concentration from 5.6-4052 pg/mL and includes 0 pg/mL.
The biotinylated anti-NHP TNFα capture antibody was added to a MSD Small Spot Streptavidin plate and incubated for an hour at RT with shaking. […] Following a wash step, 2×MSD Read buffer was added to the wells of the plate, and the plate read using the MSD Sector Imager 600 plate reader. […]

[4] = test system: enterocytes and lamina propria cells; assay: Vesicular trafficking during apical to basal transcytosis (Rab7, Rab11, LMAN1, LAMP1), rat jejunum; assay type: in vivo
Experimental: Immunofluorescence microscopy images of rat jejunum were obtained following a 50 uL intraluminal injection of an IL-10 delivery construct prepared in PBS at ˜40 uM. For FIGS. 129-133: arrow=apical (luminal) epithelial membrane; dashed line=epithelial cell-basement membrane demarcation; 1-p=lamina propria; G=goblet cell. Cell nuclei stained with DAPI (blue).
The timing of LMAN1 redistribution to the basal compartment coincides with the presence of hIL-10 being ultimately detected in non-polarized cells within the lamina propria where it was not associated with LMAN1.
Ultimately, the delivery construct is delivered to lysosome-like structures within a large fraction of cells within the lamina propria, an outcome that would limit its systemic distribution following A-B transcytosis.

[5] = test system: plasma cytokines, IL-1Ra; assay: MSD 10-plex proinflammatory panel and plasma IL-1Ra immunoassay, oxazolone dose-response; parameters: species or system mice; settings: mouse, in vivo
Description: as §1

[6] = Compression force screening, tablet properties and dimer recovery on dissolution; assay type: physicochemical; settings: F1 and F2 tablets
Experimental: Various compression forces were used to create F1 tablets (TABLE 31) and F2 tablets (TABLE 32). Dimer purity of the target construct was also examined following compaction into a tablet. […] Dimer recovery was also assessed following dissolution of various tablets at pH 7.0 (FIGS. 20A-20D).
An additional tablet (F3) was created, which was similar to an F1 tablet but with glyceryl dibehenate in place of magnesium stearate (TABLE 33). This substitution was made due to incompatibility of magnesium stearate in dissolution of target constructs in solution.

[7] = Evaluation of chromatography modes (CEX, HIC): protein stability; assay type: physicochemical
Experimental: Several modes of chromatography were evaluated during process development.

[8] = Control: Capto Q ImpRes, CHT gradient B/E (Table 59)
[9] = Control: Capto Q, CHT (Linear elution), based on historical data (Table 60)
[10] = PT1: Capto Q, S-650F, CHT (FT mode) (Table 60)
[11] = PT2: Capto Q ImpRes, CHT step B/E 80 mM NaPi, S-650F (Table 59)
[12] = PT2: Capto Q, CHT (Step elution), S-650F (Table 60)
[13] = PT3: S-650F, Capto Q, CHT (FT mode) (Table 60)

B1: IL-10 delivery construct: recombinant homodimeric fusion protein: N-terminal methionine, cholix386 domain, polyGlySer spacer, recombinant human IL-10 (protein)
chain: MVEEALNIFDECRSPCSLTPEPGKPIQSKLSIPSDVVLDEGVLYYSMTINDEQNDIKDEDKGESIITIGEFATVRATRHYVNQDAPFGVIHLDITTENGTKTYSYNRKEGEFAINWLVPIGEDSPASIKISVDELDQQRNIIEVPKLYSIDLDNQTLEQWKTQGNVSFSVTRPEHNIAISWPSVSYKAAQKEGSRHKRWAHWHTGLALCWLVPMDAIYNYITQQNCTLGDNWFGGSYETVAGTPKVITVKQGIEQKPVEQRIHFSKGNAMSALAAHRVCGVPLETLARSRKPRDLTDDLSCAYQAQNIVSLFVATRILFSHLDSVFTLNLDEQEPEVAERLSDLRRINENNPGMVTQVLTVARQIYNDYVTHHPGLTPEQTSAGAQAGGGGSGGGGSGGGGSPGQGTQSENSCTHFPGNLPNMLRDLRDAFSRVKTFFQMKDQLDNLLLKESLLEDFKGYLGCQALSEMIQFYLEEVMPQAENQDPDIKAHVNSLGENLKTLRLRLRRCHRFLPCENKSKAVEQVKNAFNKLQEKGIYKAMSEFDIFINYIEAYMTMKIRN
modifications: homodimer
- suppression of induction of IL-4 (trend) [1]: 62%
- suppression of induction of IL-6 (trend) [1]: 61%
- suppression of induction of IL-12p70 (trend) [1]: 65%
- suppression of induction of KC/GRO (trend) [1]: 51%
- plasma expression of IL-10 and IL-2 relative to Vehicle ([1]; p<0.05): significantly reduced
- Purity [2, 8]: 78.2
- Yield [2, 8]: 68 mg
- Endotoxin [2, 9]: *8 EU/mg
- Purity [2, 9]: *85%
- Endotoxin [2, 10]: 8.9 EU/mg
- Purity [2, 10]: 92%
- Purity [2, 11]: 78.5%
- Yield [2, 11]: 26 mg
- Endotoxin [2, 12]: 5 EU/mg
- Purity [2, 12]: 91%
- Endotoxin [2, 13]: 0.4 EU/mg
- Purity [2, 13]: 96%
- plasma IFNγ, IL-1β, IL-2, IL-8, IL-6 ([3]; 1, 4, 20.5, 82 mg oral capsules): not associated with any consistent trends
- plasma TNFα ([3]; all samples): below the limit of detection
- co-localization with LMAN1 ([4]; 1-15 min): co-localized with redistributing LMAN1
- co-localization with LAMP1 in polarized enterocytes ([4]; 1 min post ILI, not increasing over 15 min): Limited LAMP1/delivery construct co-localizations
- co-localization with LAMP1 in non-polarized cells within the lamina propria ([4]; 10 min and 15 min post ILI): extensive LAMP1/delivery construct co-localizations
- co-localization with Rab7+ vesicles in enterocytes ([4]; rat, in vivo): predominantly in the apical vesicular compartment
- co-localization with Rab11+ vesicles in enterocytes ([4]; rat, in vivo): mostly in the basal vesicular compartment
- time course of completion of A-B transcytosis ([4]; rat, in vivo): 10 to 15 min
- plasma cytokines, MSD 10-plex, vs Vehicle [5]: no significant differences
- robustness of dimer to compaction into tablet [6]: robust to compaction and granulation, although some aggregation was observed in final tablet form
- behaviour at relatively low pH (cation exchange) [7]: precipitate at a pH below the pI of the target construct (pH 5.5)
- behaviour in high salt (hydrophobic interaction chromatography) [7]: unstable in the high salt
